Measured values published in patent US20250000944A1, “USE OF RECOMBINANT CALRETICULIN IN HAIR GROWTH, HAIR BREEDING, HAIR PROTECTION OR ANTI-HAIR LOSS AND RELATED PRODUCT” (BEIJING YITUBAIHUI BIOTECH CO., LTD, priority 2021, published 2025).
Entries after “also recorded” stand apart in the source; their conditions may differ.

Experiments:
Assay type in all cases: in vivo, C57BL/6 male mice
[1] = test system: testosterone, dihydrotestosterone, and estradiol; experiment: Second experiment: hormone content in serum and skin tissue by ELISA; settings: compared with the model group
Method: (§1) Experimental animals: C57BL/6 male mice, 6-7 weeks old, weighing (20±2) g, were provided by Beijing Vital River Laboratory Animal Technology Co. Ltd., with the animal license number of SCXK (Beijing) 2021-0006. They were kept in a 12 h light/12 h dark environment, with free access to food and water. The mice were divided into normal control group (normal group, NC), model group (Model), experimental group C (rh-CRT-2, with a concentration of 0.35 mg/ml) including an injection group and an external application group, experimental group D (rh-CRT-3, with a concentration of 0.21 mg/ml) including an injection group and external application group, and positive control-minoxidil group (Minoxidil). The proteins were stored in a −70° C. refrigerator and diluted with physiological saline when used. There were 6 mice in each group.
(§2) Modeling and drug administration: First, the hair loss model was established. One day before the modeling, the hair in the center of the back of the experimental animal was removed with a skin preparation knife, and the prepared skin area was depilated with a depilatory cream. After 24 hours of depilation, the normal control group was given 75% ethanol, and other groups were injected with testosterone solution (5 mg/mL) prepared with 75% ethanol, 0.01 mL/mouse. Two hours later, the injection groups of experimental group C and experimental group D were injected on the back, 0.15 mL/mouse, once a day, for 17 consecutive days; the external application groups of experimental group C and experimental group D were applied on the back, 0.15 mL/mouse, once a day, for 17 consecutive days. The normal control group and the model group were externally applied with physiological saline, once a day, 0.15 mL/mouse, for 17 consecutive days. During the drug administration process, except for the normal control group, all other groups were injected with the modeling agent (testosterone), and administrated with drugs after 2 hours. […] After the experiment, the mouse skin was pathologically sectioned as follows: The skin pathological tissue was fixed in 4% paraformaldehyde, trimmed, dehydrated and transparent, and then embedded. The slices were cut with a thickness of 6 μm using a paraffin slicer, and further dewaxed, stained, dehydrated, transparent and sealed. The hair follicles in different areas were observed under an optical microscope, and the number of hair follicles was statistically analyzed.
Hormone content in serum and skin tissue: At the end of the experiment, blood was collected from the mice's orbits, kept at room temperature for 30 min, centrifuged at 5,000 r/min for 10 min, and the serum was removed. At the end of the experiment, skin tissue was collected and stored in a −80° C. refrigerator. During the experiment, the skin tissue was homogenized, and the changes in testosterone, dihydrotestosterone, and estradiol of the serum and skin tissue in each group were detected by enzyme-linked immunosorbent assay (ELISA).
(§3) Statistical analysis: All data were processed using SPSS 17.0 software. One-way ANOVA was used for comparisons among multiple groups. Data were expressed as mean±standard deviation (x±s). P<0.05 was considered statistically significant, and P>0.05 was not considered statistically significant.

[2] = test system: androgenic alopecia model; experiment: First experiment: testosterone-induced androgenic alopecia model, hair observed by dermatoscope and scanning electron microscopy
Method: Experimental animals: C57BL/6 male mice, 6-7 weeks old, weighing (20±2) g, were provided by Beijing Vital River Laboratory Animal Technology Co. Ltd., with the animal license number of SCXK (Beijing) 2021-0006. They were kept in a 12 h light/12 h dark environment, with free access to food and water. The mice were divided into normal NC group (NC), model group (Model), positive control-minoxidil group (Minoxidil), positive control-finasteride group (Finasteride), experimental group A and experimental group B. The proteins were stored in a −70° C. refrigerator and diluted with physiological saline when used. Experimental group A used rh-CRT-1, with a concentration of 0.21 mg/ml. Experimental group B used rh-CRT-2, with a concentration of 0.21 mg/ml. There were 6 mice in each group.
The main reagents used are as follows: 4% paraformaldehyde (Beijing Solarbio Technology Co., Ltd., China), isoflurane (Rayward, China), testosterone (Shanghai Standard Biotechnology Co., Ltd., China), paraffin sectioner (Thermo, USA), small animal anesthesia machine (Rayward, China), and inverted microscope (Olympus, Japan).
Modeling and drug administration: First, the androgenic alopecia model was established. One day before the modeling, the hair in the central part of the back of the experimental animal was removed with a skin preparation knife, and the prepared area was depilated with a depilatory cream. After 24 hours of depilation, the modeling agent (testosterone, 5.0 mg/mL) was subcutaneously injected into the neck of the mice in groups except the NC group, with a total dose of 0.2 mL/mouse. The mice in the NC group were injected with an equal amount of normal saline. After modeling, the mice were administrated with drugs. The NC group was injected with normal saline once a day, 0.15 mL/mouse each time. The experimental group A, experimental group B and positive control group were injected with modeling agent (testosterone), and administrated with drugs after 2 hours, and the dose of modeling agent was 0.2 mL/mouse. The experimental group A and experimental group B were injected on the back once a day, 0.15 mL/mouse each time. The positive control minoxidil group was applied 5% minoxidil externally, 0.01 mL/mouse, once a day. The positive control finasteride group was applied finasteride at a concentration of 13 μg/mL, 0.2 mL/mouse, once a day.

[3] = test system: mice with androgenic alopecia; experiment: Second experiment: testosterone hair loss model, hair growth, skin blackness, scanning electron microscopy and hair follicle count; settings: for hair growth on the back skin: 17th day, 0.15 mL/mouse once a day; for growth stage and quantity of back hair under dermoscope: end of experiment
Method: as §1, §2
Scanning electron microscopy observation: At the end of the experiment, hair shafts were randomly plucked from the newly formed hair area on the back of each group of mice. Three mice were selected from each group. The plucked hair shafts were fixed and the changes of hair shafts and hair cuticles were observed by scanning electron microscopy.
as §3

[4] = external application group, compared with the model group

B1: CRT-2: fragment (1-349 aa) of recombinantly expressed CRT, amino acid sequence SEQ ID NO: 9 (protein)
chain: EPAVYFKEQFLDGDGWTSRWIESKHKSDFGKFVLSSGKFYGDEEKDKGLQTSQDARFYALSASFEPFSNKGQTLVVQFTVKHEQNIDCGGGYVKLFPNSLDQTDMHGDSEYNIMFGPDICGPGTKKVHVIFNYKGKNVLINKDIRCKDDEFTHLYTLIVRPDNTYEVKIDNSQVESGSLEDDWDFLPPKKIKDPDASKPEDWDERAKIDDPTDSKPEDWDKPEHIPDPDAKKPEDWDEEMDGEWEPPVIQNPEYKGEWKPRQIDNPDYKGTWIHPEIDNPEYSPDPSIYAYDNFGVLGLDLWQVKSGTIFDNFLITNDEAYAEEFGNETWGVTKAAEKQMKDKQDEEQR
serum dihydrotestosterone ([1]; injection group, P<0.01): decreased significantly | skin tissue dihydrotestosterone ([1]; injection group, P<0.01): decreased significantly | testosterone level in skin tissue ([1]; injection group, P<0.05): significantly decreased | testosterone level in the serum ([1]; injection group, P<0.05): significantly decreased | serum dihydrotestosterone ([1]; topical (external application) group, P<0.05): decreased significantly | changes in hair observed by dermatoscope ([2]; 21 days, compared with the model group (frizzy hair), proteins 0.21 mg/ml injected on the back once a day, minoxidil 5% external, finasteride 13 μg/mL): smoother | hair cuticles observed by scanning electron microscopy ([2]; 21 days, proteins 0.21 mg/ml injected on the back once a day, minoxidil 5% external, finasteride 13 μg/mL, listed as experimental group B): arranged neatly; also recorded: denser than those of group A | hair shafts (scanning electron microscopy, FIG. 18 vs FIG. 19) ([2]; first experiment, comparison of experimental groups B and A): thicker than those of experimental group A | hair growth on the back skin ([3]; external application group): promoted hair growth the most | hair growth on the back skin ([3]; injection group): promoted hair growth | blackness of the back skin (color tester) ([3]; Day 14, external application group, compared with the model group, P<0.05): significantly increased | blackness of the back skin (color tester) ([3]; Day 17, external application group, compared with the model group, P<0.01): significantly increased | blackness of the back skin (color tester) ([3]; Day 17, injection group, compared with the model group, P<0.01): significantly increased | growth stage and quantity of back hair under dermoscope [3, 4]: increased number and became thicker | growth stage and quantity of back hair under dermoscope ([3]; injection group, compared with the model group): less and fine | hair cuticles under scanning electron microscopy [3, 4]: dense | hair shafts under scanning electron microscopy [3, 4]: became significantly thicker | number of hair follicles (pathological section) ([3]; external application group, compared with the model group, P<0.01): most significant effect | hair cuticles under scanning electron microscopy ([3]; injection group): dense | hair shafts under scanning electron microscopy ([3]; injection group): thin | number of hair follicles (pathological section) ([3]; injection group, compared with the model group, P<0.01): significantly promoted
